In patent publication US20160362472A1 (published 2016):

Key:
[1] = target: T1, CD22-FL-Fc (UniProt P20273 20-687); assay: NFAT-luciferase activation of CAR JNL cells on plates coated with CD22-FL-Fc, CD22-D567-Fc or CD22-D67
T1 construct: domain: full-length with all 7 external domains; also called CD22 full length-Fc; CD22 full-length with all 7 external domains; not shown: Fc part not described
Protocol: (§1) Briefly the experiments were performed as follows. A lentiviral vector (pELPS) carrying a nucleic acid, encoding a CD22 CAR with a CD22-binding scFv domain was introduced by electroporation into a Jurkat T cell line modified to express luciferase under the control of an NFAT response element (JNL). The cells were cultured and allowed to express the CAR construct. The electroporated cells were applied to a plate coated with the target antigen (CD22). Detection of luciferase signal in the coated plate was indicative of binding activity of the CD22 CAR to its antigen, leading to activation of the T cells and expression of luciferase.
Three different target proteins (CD22-FL-Fc, CD22-D567-Fc, and CD22-D67) were used to coat the tissue culture plates; a negative control (Fc) was also included. A mesothelin binding CAR (Meso-G07) was used as a negative control. […] Domain mapping was performed on CD22 binding domains. Three different forms of antigens were used: CD22 full-length with all 7 external domains, Domain567 (in which domains 1-4 were deleted) and Domain67 (in which domains 1-5 were deleted).

[2] = target: T1, CD22-FL-Fc; assay: NFAT-luciferase activation of CAR JNL cells on plates coated with CD22 full length-Fc, CD22 D567-Fc or Fc only
Protocol: as §1
CAR constructs containing these scFvs were tested for activity in an NFAT assay as described above. […] The bars in the figure represent, from left to right, CD22 full length-Fc; CD22 D567-Fc; and an Fc only negative control used for coating of the plates.

[3] = target: CD123 on target cells (MOLM14, MOLM13, primary B-ALL blasts) (human), P26951; assay: cell-based or functional assay
CD123 on target cells (MOLM14, MOLM13, primary B-ALL blasts) (human), P26951, sequence (P26951 19-378): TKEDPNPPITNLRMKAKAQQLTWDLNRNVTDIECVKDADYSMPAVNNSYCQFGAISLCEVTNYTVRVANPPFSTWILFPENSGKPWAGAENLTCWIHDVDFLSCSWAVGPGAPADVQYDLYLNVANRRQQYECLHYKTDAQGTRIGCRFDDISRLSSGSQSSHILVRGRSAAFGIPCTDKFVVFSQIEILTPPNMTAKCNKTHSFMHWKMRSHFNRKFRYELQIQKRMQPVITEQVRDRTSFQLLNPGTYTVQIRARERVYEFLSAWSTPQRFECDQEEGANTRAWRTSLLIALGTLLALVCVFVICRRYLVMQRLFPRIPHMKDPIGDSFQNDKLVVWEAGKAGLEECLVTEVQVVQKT

| Binder | binding result [1] | further results |
| --- | --- | --- |
| CAR22-53 (scFv, scFv domain of a CAR on JNL cells or T cells; also called CD22-53; hCD22-53) scFv: EVQLQQSGPGLVKPSQTLSLTCAISGDSVSSNSAAWNWIRQSPSRGLEWLGRTYYRSKWYSDYAVSVKSRITINPDTSKNQFSLQLNSVTPEDTAVYYCARDPYDFWSGYPDAFDIWGQGTMVTVSSGGGGSGGGGSGGGGSQSALTQPASVSGSPGQSITISCTGTSSDVGGYNYVSWYQQHPGKAPKVIISEVNNRPSGVSHRFSGSKSGNTASLTISGLQAEDEADYFCSSYTSGRTLYVFGTGSKVTVLG | binds |  |
| CAR22-58 (scFv, scFv domain of a CAR expressed on JNL cells; also called CD22-58) scFv: EVQLQQSGPGLVNPSQTLSITCAISGDSVSSNSAAWNWIRQSPSRGLEWLGRTFYRSKWYNDYAVSVKGRITISPDTSKNQFSLQLNSVTPEDTAVYYCAGGDYYYGLDVWGQGTTVTVSSGGGGSGGGGSGGGGSQSALTQPASVSGSPGQSITISCTGSSSDVGGYNSVSWYQQHPGKAPKLMIYEVINRPSGVSHRFSGSKSGNTASLTISGLQAEDEADYYCSSYTSSSTYVFGTGTKVTVLG | binds |  |
| CAR22-62 (scFv, scFv domain of a CAR expressed on JNL cells; also called CD22-62) scFv: EVQLQQSGPGLVKPSQTLSLTCAISGDSVLSNSDTWNWIRQSPSRGLEWLGRTYHRSTWYDDYASSVRGRVSINVDTSKNQYSLQLNAVTPEDTGVYYCARDRLQDGNSWSDAFDVWGQGTMVTVSSGGGGSGGGGSGGGGSQSALTQPASVSGSPGQSITISCTGTSSDVGGYNYVSWYQQHPGKAPKLMIYDVSNRPSGVSNRFSGSKSGNTASLTISGLQAEDEADYYCSSYTSSSTLYVFGTGTKVTVLG | binds |  |
| CAR22-61 (scFv, scFv domain of a CAR expressed on JNL cells; also called CD22-61) scFv: QVQLQESGPGLVKPSQTLSLTCAISGDSVLSNSDTWNWIRQSPSRGLEWLGRTYHRSTWYDDYASSVRGRVSINVDTSKNQYSLQLNAVTPEDTGVYYCARDRLQDGNSWSDAFDVWGQGTMVTVSSGGGGSGGGGSGSGGSQSALTQPASVSGSPGQSITISCTGTSSDVGGYNYVSWYQQHPGKAPKLMIYEVSNRPSGVSNRFSGSKSGNTASLTISGLQAEDEADYYCSSYTSSSTLYVFGTGTKVTVLG | binds |  |
| CAR22-12 (scFv, scFv domain of a CAR on T cells or JNL cells; also called CD22 CAR clone 12; hCD22-12) scFv: EVQLQQSGPGLVKPSQTLSLTCAISGDSVLSNSDTWNWIRQSPSRGLEWLGRTYHRSTWYDDYASSVRGRVSINVDTSKNQYSLQLNAVTPEDTGVYYCARDRLQDGNSWSDAFDVWGQGTMVTVSSGGGGSGGGGSGGGGSQSALTQPASASGSPGQSVTISCTGTSSDVGGYNYVSWYQQHPGKAPKLMIYDVSNRPSGVSNRFSGSKSGNTASLTISGLQAEDEADYYCSSYTSSSTLYVFGTGTQLTVL | binds |  |
| CAR22-64 (scFv, also called CD22-64) scFv: EVQLQQSGPGLVKPSQTLPLTCAISGDSVLSNSDTWNWIRQSPSRGLEWLGRTYHRSTWYDDYASSVRGRVSINVDTSKNQYSLQLNAVTPEDTGVYYCARVRLQDGNSWSDAFDVWGQGTMVTVSSGGGGSGGGGSGGGGPQSALTQPASASGSPGQSVTISCTGTSSDVGGYNYVSWYQQHPGKAPKLMIYDVSNRPSGVSNRFSGSKSGNTASLTISGLQAEDEADYYCSSYTSSSTLYVFGTGTQLTVL |  | binding result [2]: binds |
| CAR22-65 (scFv, also called CD22-65) scFv: EVQLQQSGPGLVKPSQTLSLTCAISGDSMLSNSDTWNWIRQSPSRGLEWLGRTYHRSTWYDDYASSVRGRVSINVDTSKNQYSLQLNAVTPEDTGVYYCARVRLQDGNSWSDAFDVWGQGTMVTVSSGGGGSGGGGSGGGGSQSALTQPASASGSPGQSVTISCTGTSSDVGGYNYVSWYQQHPGKAPKLMIYDVSNRPSGVSNRFSGSKSGNTASLTISGLQAEDEADYYCSSYTSSSTLYVFGTGTQLTVL |  | binding result [2]: binds |
| CAR123-3 (scFv, V domains shown) VH: QVQLVQSGAEVKKPGASVKVSCKASGYIFTGYYIHWVRQAPGQGLEWMGWINPNSGGTNYAQKFQGRVTMTRDTSISTAYMELSGLRSDDPAVYYCARDMNILATVPFDIWGQGTLVTVSS VL: DIQLTQSPSSLSASVGDRVTITCRASQSISSYLNWYQQKPGKAPKLLIYAASSLQSGVPSRFSGSGSGTDFTLTVNSLQPEDFATYYCQQGDSVPLTFGGGTKVEIK |  | CD107a degranulation, 2-hr in vitro assay [3]: 80% |
| CAR123-4 (scFv, V domains shown) VH: QVQLQQSGAEVKKSGASVKVSCKASGYTFTDYYMHWLRQAPGQGLEWMGWINPNSGDTNYAQKFQGRVTLTRDTSISTVYMELSRLRSDDTAVYYCARDMNILATVPFDIWGQGTMVTVSS VL: DIQMTQSPSSLSASVGDRVTITCRASQSISSYLNWYQQKPGKAPKLLIYAASSLQSGVPSRFSGSGSGTDFTLTISSLQPEDFATYYCQQGDSVPLTFGGGTKVEIK |  | CD107a degranulation, 2-hr in vitro assay [3]: 80% |

The next lines start with results.

| binding result [1] | Binder | further results |
| --- | --- | --- |
| binds | CAR22-59 (scFv, scFv domain of a CAR expressed on JNL cells; also called CD22-59) scFv: EVQLQQSGPGLVKPSQTLSLTCAISGDSVLSNSDTWNWIRQSPSRGLEWLGRTYHRSTWYDDYASSVRGRVSINVDTSKNQYSLQLNAVTPEDTGVYYCARDRLQDGNSWSDAFDVWGQGTMVTVSSGGGGSGGGGSGGGGSQSALTQPASVSGSPGQSITISCTGSSSDIGGFNYVSWYQQHAGEAPKLMIYEVTNRPSGVSDRFSGSKSDNTASLTISGLQAEDEADYYCSSYASGSPLYVFGTGTKVTVLG |  |
| binds | CAR22-63 (scFv, scFv domain of a CAR expressed on JNL cells; also called CD22-63) scFv: EVQLQQSGPGLVKPSQTLSLTCAISGDSVLSNSDTWNWIRQSPSRGLEWLGRTYHRSTWYDDYASSVRGRVSINVDTSKNQYSLQLNAVTPEDTGVYYCARDRLQDGNSWSDAFDVWGQGTMVTVSSGGGGSGGGGSGGGGSQSALTQPASVSGSPGQSITISCTGTSSDVGGYNYVSWYQQHPGKAPKLMIYEVSNRPSGVSNRFSGSKSGNTASLTISGLQAEDEADYYCSSYTSSSTLYIFGTGTKVTVLG |  |
| binds | CAR22-60 (scFv, scFv domain of a CAR expressed on JNL cells; also called CD22-60) scFv: EVQLQQSGPGLVKPSQTLSLTCAISGDSVLSNSDTWNWIRQSPSRGLEWLGRTYHRSTWYDDYASSVRGRVSINVDTSKNQYSLQLNAVTPEDTGVYYCARDRLQDGNSWSDAFDVWGQGTMVTVSSGGGGSGGGGSGSGGSQSALTQPASVSGSPGQSITFSCTGTSSDIGGYNYVSWYQQHPGKAPKLMIYEVSNRPSGVSNRFSGTKSGNTASLTISGLQAEDEADYYCSSYTSSSTLYVFGTGTKLTVLG |  |
| binds | CAR 22-57 (scFv, scFv domain of a CAR expressed on JNL cells; also called CD22-57) scFv: EVQLQQSGPGLVKPSQTLSLTCAISGDSVSNNNAAWNWIRQSPSRGLEWLGRTYHRSTWYNDYVGSVKSRITINPDTSKNQFSLQLNSVTPEDTAVYYCARETDYGDYGAFDIWGQGTTVTVSSGGGGSGGGGSGGGGSQSALTQPASVSGSPGQSITISCTGSRNDIGAYESVSWYQQHPGNAPKLIIHGVNNRPSGVFDRFSVSQSGNTASLTISGLQAEDEADYYCSSHTTTSTLYVFGTGTKVTVLG |  |
